From the supplement of paper PMC10266784

B1: library; numbered along this chain (parent)
chain: MAAAAAAAAEQQSSNGPVKKSMREKAVERRSVNKEHNSNFKAGYIPIDEDRLHKTGLRGRKGNLAICVIILLFILAVINLIITLVIWAVIRIGPNGCDSMEFHESGLLRFKQVSDMGVIHPLYKSTVGGRRNENLVITGNNQPIVFQQGTTKLSVENNKTSITSDIGMQFFDPRTQNILFSTDYETHEFHLPSGVKSLNVQKASTERITSNATSDLNIKVDGRAIVRGNEGVFIMGKTIEFHMGGNMELKAENSIILNGSVMVSTTRLPSSSSGDQLGSGDWVRYKLCMCADGTLFKVQVTSQNMGCQISDNPCGNTH

Variants of: B1
Assay: SGCB cell-surface expression functional score (HA stain, bin4 vs bin1, normalised to synonymous) (log10 ratio); higher = more cell-surface SGCB (functional)
Method in brief: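 Codon-saturation libraries of HA-tagged, YFP-fused human beta-sarcoglycan were lentivirally transduced at MOI <0.1 into HEK293 cells stably expressing alpha-, gamma- and delta-sarcoglycan. YFP-positive cells were sorted after 72 hours, grown 5–7 days, stained on ice with Alexa Fluor 647 anti-HA, fixed, sorted into four 5% intensity bins and amplicon-sequenced. The functional score is the log ratio of highest-bin to lowest-bin variant frequency, taken as the median over codons and duplicate transductions. Synonymous variants were scaled per section to mean 0, SD 0.5.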

SGCB cell-surface expression functional score (log10), by site and new letter:
V145: E -0.03; Q -0.39; F -0.11; H -0.24; P -1.15; A -0.01; D -0.79; R -0.43; K -0.12; G -0.81; M -0.9; W -0.57; L -0.09; S -0.31; Y -0.43; I 0.52; N -0.26; T 0.04
T150: V -0.25; I 0.04; R -0.26; H 0; P -0.37; S -0.15; Y 0; W 1.1; C 0.25; K -0.14; N 0.07; E -0.57; L -0.19; M -0.99; D 0.59; A -0.2; Q -0.12; F -0.59; G -0.22
T151: L -1.22; G -0.94; A -0.08; I -0.82; C -0.22; E -1.31; H -1.24; D -1.17; K -0.7; F -1
Q148: C 0.39; D -0.54; H -0.24; G 0.33; I -0.28; N -1.26; L -0.18; E -0.58; R 0.02; Y -0.25; T 0.08; V 0.28; K -0.27; P -1.36; W 0.01; A 0.12; S 0.42; F -0.38
F146: P -1.14; M -0.56; Y -0.75; K -0.93; G -0.94; N -1.08; D -1.36; R -1.45; H -0.89; L 0.18; V -0.32; S -0.84; W -1.15; E -0.7; I 0.28; T -1.45; A -1.22; Q -1.34; C -0.47
